Measured values as given in patent publication US10029000B2, “Uses of IL-12 in hematopoiesis” (University of Southern California, priority 2003, dated 2018).
Values joined by “and” are separate entries in the source; they are usually repeats but may differ in a detail not shown here. Equal entries are not always repeated.

Legend:
[1] = tested on: peripheral blood cells; assay: Peripheral blood cell counts after lethal or sublethal irradiation; assay type: in vivo, mice (C57BL/6J)
Description: After lethal dose radiation (10 Gy), the full blood cell count dropped to lowest point for both IL-12 treated and non-treated mice. However, 11-12 treated mice start to recover at day 14 post radiation while the control animals died out. It is noteworthy that the recovery is multi-lineage, including white blood cell, red blood cell and platelets.
Here too, the recovery is broad range and encompasses all blood lineages and blood cell types. […] This effect is somewhat better when IL-12 was administrated 24 hours before radiation than IL-12 administrated after radiation.
For peripheral blood cell counts, 6-8 week old female C57BL/6J mice received an i.v. injection of IL-12 before or after lethal (1000 rad) or sub-lethal (500 rad) irradiation. 10 ul blood was taken from the tail to do blood cell count analyses in a MASCOT Multispecies Hematology Systems (CDC Technologies, Oxford, Conn.) at different days after irradiation. Each group had at least 3 mice.

[2] = tested on: small intestine; assay: Small intestine histology after lethal dose radiation; assay type: in vivo, mice; details: 5 ug/kg, 1000 rad or 1600 rad (10 and 16 Gy), 4 days post radiation
Method: 4 days post radiation, small intestine were removed, fixed for PAS staining for mice received 10 Gy (Periodic Acid Schiff), H&E staining for mice received 16 Gy. […] There is no obvious histological damage in mice who received 10 Gy radiation. (200× magnification)
To determine if IL-112 sensitizes intestinal tract to ionizing radiation, two different doses of IL-12 and radiation were used in radioprotection assay, namely 5 ug/kg and 50 ug/kg of IL-12 and two different doses of radiation were also used. Subsequent to the administration of IL-12 and radiation, both bone marrow and the small intestine were removed from mice who received either 5 ug/kg or 50 ug/kg of IL-12 and a lethal dose radiation for histology study. The lethal doses were either 1000 rad or 1600 rad.
Mice were treated with IL-12 (100 ng/mouse) or PBS 24 hours before receiving lethal irradiation. At different days after lethal irradiation, femurs, spleens and small intestines were removed and fixed in 10% formalin buffer for 24 hours. Subsequently, bone marrow was decalcified in Rapid Decalcifier for about 30 minutes. Samples and tissues then were embedded in TissuePrep 2 paraffin wax for micro-section at 5 μm for routine Hematoxylin and Eosin staining. Some small intestines were treated with PAS (Periodic Acid Schiff) staining.

[3] = tested on: Sca-1+ cells; assay: Annexin V / Sca-1 detection after lethal dose radiation (apoptosis); assay type: in vivo, mice; details: IL-12 24 hours before 10 Gy, 7 hours post radiation
Method: IL-12 administration protects Annexin V^−/Sca-1^+ cells (H4) from radiation induced apoptosis, where the Sca-1^+ positive cells are indicative of the presence of hematopoietic repopulating cell or hematopoietic stem cells and Annexin V negative cells are indicative of the functional bone marrow cells.
A study was conducted to assess whether IL-12 administration protects Sca-1+ cells from radiation induced apoptosis. The Sca-1+ is a marker for hematopoietic repopulating cell or stem/progenitor cells. 24 hours post IL-12 administration, mice received lethal dose radiation (10 Gy). 7 hours post radiation, mice were sacrificed and bone marrow cells were isolated to detect Annexin V (an indication of cell apoptosis) and Sca-1 antigen (stem cell marker).

[4] = tested on: bone marrow cells; assay: Cell cycle analysis with propidium iodide staining; assay type: in vivo, mice; details: 24 hours post IL-12 administration; control 10%, p<0.05
Method: It is believed that cells at S phase are more resistant to radiation. Both Brd-U incoperation and cell cycling analysis were performed to determine if IL-12 can stimulate bone marrow cell proliferation. In IL-12 treated mice, there are more bone marrow cells in S phase compared with control animals (12% vs 10%, p<0.05). Furthermore, there are more BrdU positive cells in IL-12 treated bone marrow compared with control animals (17% vs 8%, p<0.05).
24 hours post IL-12 administration (10 ng/mouse), bone marrow cells were isolated for BrdU incooperation assay (FIG. 7A).
For the cell cycling assay, IL-12 (100 ng/mouse) or PBS was intravenously injected into mice. 24 hours after injection, whole bone marrow cells were flushed from femurs and treated with lysis buffer to destroy red blood cells. After washing in PBS and fixing in −20° C. pure ethanol for at least 1 hour, about 5×10^5 bone marrow cells were treated with RNase A (20 ng/ul final concentration) at 37° C. for 30 minutes, then stained with propidium iodide (100 ng/ul final concentration) from Sigma (St Louis, Mo.) at room temperature for 15 to 30 minutes and then processed directly for cell cycling analysis using fluorescence activated cell sorting (FACS).

B1: IL-12: Recombinant murine interleukin 12, heterodimeric cytokine (p35+p40), purchased from R&D Systems or PeproTech (protein, UniProt P43431 23-215; P43432 23-335, looked up)
Interleukin-12 subunit alpha: RVIPVSGPARCLSQSRNLLKTTDDMVKTAREKLKHYSCTAEDIDHEDITRDQTSTLKTCLPLELHKNESCLATRETSSTTRGSCLPPQKTSLMMTLCLGSIYEDLKMYQTEFQAINAALQNHNHQQIILDKGMLVAIDELMQSLNHNGETLRQKPPVGEADPYRVKMKLCILLHAFSTRVVTINRVMGYLSSA
Interleukin-12 subunit beta: MWELEKDVYVVEVDWTPDAPGETVNLTCDTPEEDDITWTSDQRHGVIGSGKTLTITVKEFLDAGQYTCHKGGETLSHSHLLLHKKENGIWSTEILKNFKNKTFLKCEAPNYSGRFTCSWLVQRNMDLKFNIKSSSSSPDSRAVTCGMASLSAEKVTLDQRDYEKYSVSCQEDVTCPTAEETLPIELALEARQQNKYENYSTSFFIRDIIKPDPPKNLQMKPLKNSQVEVSWEYPDSWSTPHSYFSLKFFVRIQRKKEKMKETEEGCNQKGAFLVEKTSTEVQCKGGNVCVQAQDRYYNSSCSKWACVPCRVRS
For B1, the “time to reach normal blood cell count” value ([1]; lethal dose radiation (10 Gy)) was “about 30 days post radiation”, the “day at which blood cell counts start to recover” value ([1]; lethal dose radiation (10 Gy), 100 ng/mouse) was no more than 14 day post radiation and the “day at which blood cell counts start to recover” value ([1]; lethal dose radiation (10 Gy), 100 ng/mouse, listed as 11-12) was 14 day post radiation. The “blood cell count recovery versus control” value ([1]; sublethal radiation (500 rad), 100 ng/mouse) was “accelerates the blood cell count recovery”, the “red blood cell, platelet, white blood cell and monocyte versus control” value ([1]; sublethal radiation (500 rad), day 5 and 8 post radiation, p<0.05) was “statistically higher” and the “small intestine histology versus control” value [2] was “no significant histological difference”. The “AnnexinV-/Sca-1+ cells in whole bone marrow” value ([3]; control 9.7±1.5%, p<0.01) was 19.2±3.7% and 19.2±2.3%, the “proportion of AnnexinV-/Sca-1+ cells in total Sca-1+ cells” value ([3]; control 44±5%, p<0.05) was 54±5% and the “bone marrow cells in S phase” value [4] was 12%.
